For one substance, attachment index (beads bound per 100 cells) (beads bound per 100 cells) results are on record in PMC2120984.

Read-outs that look alike come from different tables or passages of the source.

In experiment [1] the target is alpha v integrins of OV10 cells (human (endogenous in OV10)). The experiment is described as follows: binding of protein-coated beads to adherent cells.
Experiment [2] has the same target. Briefly: binding of protein-coated beads to adherent cells. This is another data set of the same source.

“Vitronectin (from UniProt P04004) (ligand)”: the attachment index (beads bound per 100 cells) (beads bound per 100 cells) was determined as 181 in experiment [1] and 373 in experiment [2].
